# B1: Kinesin-like protein KIF17 (Homo sapiens), Q9P2E2 (parent)
# chain: MASEAVKVVVRCRPMNQRERELRCQPVVTVDCARAQCCIQNPGAADEPPKQFTFDGAYHVDHVTEQIYNEIAYPLVEGVTEGYNGTIFAYGQTGSGKSFTMQGLPDPPSQRGIIPRAFEHVFESVQCAENTKFLVRASYLEIYNEDVRDLLGADTKQKLELKEHPEKGVYVKGLSMHTVHSVAQCEHIMETGWKNRSVGYTLMNKDSSRSHSIFTISIEMSAVDERGKDHLRAGKLNLVDLAGSERQSKTGATGERLKEATKINLSLSALGNVISALVDGRCKHVPYRDSKLTRLLQDSLGGNTKTLMVACLSPADNNYDETLSTLRYANRAKNIRNKPRINEDPKDALLREYQEEIKKLKAILTQQMSPSSLSALLSRQVPPDPVQVEEKLLPQPVIQHDVEAEKQLIREEYEERLARLKADYKAEQESRARLEEDITAMRNSYDVRLSTLEENLRKETEAVLQVGVLYKAEVMSRAEFASSAEYPPAFQYETVVKPKVFSTTDTLPSDDVSKTQVSSRFAELPKVEPSKSEISLGSSESSSLEETSVSEAFPGPEEPSNVEVSMPTEESRSRYFLDECLGQEAAGHLLGEQNYLPQEEPQEVPLQGLLGLQDPFAEVEAKLARLSSTVARTDAPQADVPKVPVQVPAPTDLLEPSDARPEAEAADDFPPRPEVDLASEVALEVVRTAEPGVWLEAQAPVALVAQPEPLPATAGVKRESVGMEVAVLTDDPLPVVDQQQVLARLQLLEQQVVGGEQAKNKDLKEKHKRRKRYADERRKQLVAALQNSDEDSGDWVLLNVYDSIQEEVRAKSKLLEKMQRKLRAAEVEIKDLQSEFQLEKIDYLATIRRQERDSMLLQQLLEQVQPLIRRDCNYSNLEKILRESCWDEDNGFWKIPHPVITKTSLPVAVSTGPQNKPARKTSAADNGEPNMEDDRYRLMLSRSNSENIASNYFRSKRASQILSTDARKSLTHHNSPPGLSCPLSNNSAIPPTQAPEMPQPRPFRLESLDIPFTKAKRKKSKSNFGSEPL
# Variants of: B1
# Settings: with tnpo1_human TNPO1, Q92973
# Chain of tnpo1_human TNPO1, Q92973 (Q92973 whole entry): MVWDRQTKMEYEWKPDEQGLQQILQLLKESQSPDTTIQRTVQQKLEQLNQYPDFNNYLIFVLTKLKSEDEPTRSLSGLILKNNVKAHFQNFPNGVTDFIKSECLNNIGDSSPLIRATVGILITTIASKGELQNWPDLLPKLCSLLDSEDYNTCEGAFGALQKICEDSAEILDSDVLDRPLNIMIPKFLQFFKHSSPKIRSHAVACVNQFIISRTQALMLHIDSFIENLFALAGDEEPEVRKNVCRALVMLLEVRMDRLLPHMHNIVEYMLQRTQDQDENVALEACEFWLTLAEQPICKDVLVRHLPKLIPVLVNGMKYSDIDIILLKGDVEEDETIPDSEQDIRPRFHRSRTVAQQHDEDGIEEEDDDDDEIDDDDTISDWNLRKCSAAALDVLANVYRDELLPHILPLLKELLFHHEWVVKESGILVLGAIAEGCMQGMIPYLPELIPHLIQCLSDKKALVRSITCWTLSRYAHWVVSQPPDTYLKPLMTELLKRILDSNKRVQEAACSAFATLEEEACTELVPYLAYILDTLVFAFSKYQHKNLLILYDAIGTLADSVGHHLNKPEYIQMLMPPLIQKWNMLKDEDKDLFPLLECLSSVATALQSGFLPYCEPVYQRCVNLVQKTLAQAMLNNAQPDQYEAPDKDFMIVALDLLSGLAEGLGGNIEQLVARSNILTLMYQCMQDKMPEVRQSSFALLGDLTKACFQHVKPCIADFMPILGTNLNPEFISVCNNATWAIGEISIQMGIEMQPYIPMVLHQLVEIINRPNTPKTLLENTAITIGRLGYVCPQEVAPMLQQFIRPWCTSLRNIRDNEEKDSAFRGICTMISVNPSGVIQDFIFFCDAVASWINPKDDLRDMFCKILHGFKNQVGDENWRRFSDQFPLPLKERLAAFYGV
row,Variant,effect of a mutation on the interaction
1,K1016A;R1017A;K1018A;K1019A,disrupting interaction strength
